According to patent publication US20070098721A1:

Columns and labels:
Experiment in all cases: dot blot, antigen dilution series on nitrocellulose
[1] = target: Aβ(1-42) fibril preparation of example 27 (human) (UniProt P05067)
[2] = target: Aβ(1-42) oligomers B (human amyloid β(1-42) oligomers having molecular weights of 38 kDa and 48 kDa; preparation of example 6b) (human) (UniProt P05067)
[3] = target: HFIP-treated Aβ(1-42) monomer of example 1a (human amyloid β(1-42) protein) (human)
Sequence of HFIP-treated Aβ(1-42) monomer of example 1a (human amyloid β(1-42) protein) (human) (peptide, as listed by the source): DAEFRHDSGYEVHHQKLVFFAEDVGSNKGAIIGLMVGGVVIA

Sequence of Aβ(1-42) oligomers B (human amyloid β(1-42) oligomers having molecular weights of 38 kDa and 48 kDa; preparation of example 6b) (human) (P05067 672-713 limits assumed): as the sequence (peptide, as listed by the source) above
Sequence of Aβ(1-42) fibril preparation of example 27 (human) (P05067 672-713 limits assumed): as the sequence (peptide, as listed by the source) above

**Q.** Which minimum amount of antigen visible (detection limit) [1] does the source give for monoclonal antibody 6E10 (Signet) here?
**A.** The minimum amount of antigen visible (detection limit) was 1 pmol.

**Q.** And the minimum amount of antigen visible (detection limit) [2]?
**A.** Its minimum amount of antigen visible (detection limit) is 0.1 pmol.

**Q.** And the minimum amount of antigen visible (detection limit) [3]?
**A.** The minimum amount of antigen visible (detection limit) was 0.1 pmol.
